Source: patent US6339070B1, “Gene construct encoding a heterologous prodrug-activating enzyme and a cell targeting moiety” (Zeneca Limited, priority 1997, dated 2002)
“Also recorded” adds a separate entry of the source.

Tests used:
[1] = target: T1, human carcinoembryonic antigen (CEA) (Homo sapiens, UniProt P06731); test: CEA-binding ELISA, anti human kappa light chain reporter antibody; settings: COS-7 transient expression supernatant
T1 sequence (P06731 35-676): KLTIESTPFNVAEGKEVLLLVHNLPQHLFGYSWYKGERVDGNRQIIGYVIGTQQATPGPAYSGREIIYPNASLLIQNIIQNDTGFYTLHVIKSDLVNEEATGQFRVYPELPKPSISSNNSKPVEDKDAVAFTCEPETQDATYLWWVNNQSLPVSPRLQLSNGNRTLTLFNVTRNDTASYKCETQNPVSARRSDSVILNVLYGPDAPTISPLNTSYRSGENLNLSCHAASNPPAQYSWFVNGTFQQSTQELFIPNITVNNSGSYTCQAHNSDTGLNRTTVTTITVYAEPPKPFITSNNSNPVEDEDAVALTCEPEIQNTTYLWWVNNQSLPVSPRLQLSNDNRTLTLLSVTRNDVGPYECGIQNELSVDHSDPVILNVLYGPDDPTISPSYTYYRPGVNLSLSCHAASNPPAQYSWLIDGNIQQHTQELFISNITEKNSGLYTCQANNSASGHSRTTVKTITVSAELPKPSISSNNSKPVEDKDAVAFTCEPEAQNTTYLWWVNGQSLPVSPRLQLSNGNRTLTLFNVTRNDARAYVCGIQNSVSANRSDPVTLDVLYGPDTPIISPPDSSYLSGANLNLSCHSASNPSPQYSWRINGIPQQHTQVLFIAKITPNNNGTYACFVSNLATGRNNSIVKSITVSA
Description: For the CEA ELISA each well of a 96 well immunoplate (NUNC MAXISORB™) was coated with 50 ng CEA in 50 mM carbonate/bicarbonate coating buffer pH9.6 (buffer capsules—Sigma C3041) and incubated at 4° overnight. The plate was washed three times with PBS-TWEEN™ (PBS+0.05% TWEEN™ 20) and then blocked 150 μl per well of 1% BSA in PBS-TWEEN™ for 1 hour at room temperature. The plate was washed three times with PBS-TWEEN™, 100 μl of test sample added per well and incubated at room temperature for 2 hours. The plate was washed three times with PBS-TWEEN™, 100 μl per well of a 1/500 dilution of HRPO-labelled goat anti-human kappa antibody (Sigma A 7164) was added in 1% BSA in PBS-TWEEN™ and incubated at room temperature on a rocking platform for at least 1 hour. The plate was washed three times with PBS-TWEEN™ and then once more with PBS. To detect binding, add 100 μl per well of developing solution (one capsule of phosphate-citrate buffer—Sigma P4922—dissolved in 100 ml H2O to which is added one 30 mg tablet o-phenylenediamine dihydrochloride—Sigma P8412) and incubated for up to 15 minutes. The reaction was stopped by adding 75 μl 2M H2SO4, and absorbance read at 490 nm.

[2] = system: CEA negative cell lines; test: Cell based ELISA of secreted fusion protein, CEA negative cells; settings: increasing amounts of added fusion protein; listed as (A5B7-CPG2)2 fusion protein
Description: Cells were seeded into 96 well plates (Becton Dickinson Biocoat™ poly-D-Lysine, 35-6461) at a density of 1×10^4 cells per well in 100 μl normal culture media and left about 40 h at 37°. 100 μl of 6% formaldehyde was diluted in DMEM and left for 1 hour at 4°. Plates were centrifuged and washed 3 times in PBS containing 0.05% Tween™ by immersion soaking (first two washes for 2 minutes and the final wash for 5 minutes).
100 μl of doubling dilutions of cell culture supernatant containing fusion protein or chimeric A5B7 anti-CEA were added to each well as appropriate and the plates incubated overnight at 4°. The plates were washed as described above and, in the case of chimaeric fusion proteins. 100 μl of 1:1000 dilution of HRP labelled anti-human kappa antibody (Sigma A-7164) was added and incubated for 2 hours at room temperature (an anti-CPG2 detection methodology can be used in the case of murine scFv fusion proteins). The plates were washed as described above and HRP detected using OPD substrate (Sigma P-8412). Colour was allowed to develop for about 5 min, stopped with 75 μl per well of 2M H2SO4 and OD read at 490 nm.
In the case of the (A5B7-CPG2)2 fusion protein, material was produced in the supernatant from recombinant Colo32ODM tumour cells (CEA-ve). The fusion protein content was measured by use of the CEA ELISAs described above. […]

[3] = Enzyme activity in tumour xenograft samples (methotrexate turnover, HPLC); assay type: in vivo, athymic nude mice; settings: 20% recombinant: 80% parental LoVo tumours
Description: Recombinant LoVo fusion protein (A5B7-CPG2)2 expressing tumour cells or mixes of recombinant and parental LoVo cells were injected subcutaneously into athymic nude mice (10^7 tumour cells per mouse). The tumour growth rates for both 100% recombinant and 20%: 80% mixes of recombinant:parental LoVo cells were compared to those of parental cell only tumours.
To act as a standard for the assay, a CPG2 enzyme standard curve was prepared in 20% homogenate of normal tumour (parental cell tumour). Subsequent dilutions of samples were made in the same 20% homogenate of normal tumour.
Excised tumour tissue is removed from −80° storage (previously flash frozen in liquid nitrogen) and allowed to thaw. Any residual skin tissue was removed before the tumour was cut up in to small fragments with a scalpel. The tumour tissue was transferred to a preweighed tube and the weight of tumour tissue measured. PBS containing 0.2 mM ZnCl2 solution was added to each tumour sample to give a 20% (w/v) mix, homogenised and placed on ice. Dilutions of sample tumours (in 20% normal tumour homogenate) were prepared e.g. neat, 1/10, 1/20 and 1/40.
For the standard curve, dilutions of CPG2 enzyme were made to the following concentrations to a final volume of 400 μl. Similarly, 400 μl of each of the recombinant tumour sample dilutions were also prepared. After equilibration to 30°, 4 μl of 10 mM methotrexate (MTX) solution was added. The reaction was stopped after exactly 10 minutes by adding 600 μl ice cold methanol+0.2% TFA, centrifuged and the supematant collected. The substrate and product in the supernatant were then separated by HPLC (using a Cation Exchange Column, HICROM™ S5SCX-100 A, mobile phase=60% methanol, 40% 60 mM ammonium formate/0.1% TFA, detection 300 nm). To calculate enzyme activity in the tumour tissue, the standard curve was plotted as units of area of methotrexate metabolite (the standards are such that only 20-30% of the substrate is metabolised so ensuring this is not rate limiting). The test samples were analysed by comparing the unit area of metabolite against the standard curve and then multiplying by the dilution factor. Finally, making the working assumption that 1 ml=1 g the results were multiplied by 5 (as the samples were originally diluted to a 20% homogenate).

B1: (A5B7 Fab-CPG2)2 fusion protein: chimaeric A5B7 anti-CEA Fab, heavy chain Fd linked via (G4S)3 linker to CPG2 R6, dimerised through CPG2 (antibody)
heavy: EVKLVESGGGLVQPGGSLRLSCATSGFTFTDYYMNWVRQPPGKALEWLGFIGNKANGYTTEYSASVKGRFTISRDKSQSILYLQMNTLRAEDSATYYCTRDRGLRFYFDYWGQGTTLTVSSASTKGPSVFPLAPCSRSTSESTAALGCLVKDYFPEPVTVSWNSGALTSGVHTFPAVLQSSGLYSLSSVVTVPSSNFGTQTYTCNVDHKPSNTKVDKTVGGGGSGGGGSGGGGSQKRDNVLFQAATDEQPAVIKTLEKLVNIETGTGDAEGIAAAGNFLEAELKNLGFTVTRSKSAGLVVGDNIVGKIKGRGGKNLLLMSHMDTVYLKGILAKAPFRVEGDKAYGPGIADDKGGNAVILHTLKLLKEYGVRDYGTITVLFNTDEEKGSFGSRDLIQEEAKLADYVLSFEPTSAGDEKLSLGTSGIAYVQVQITGKASHAGAAPELGVNALVEASDLVLRTMNIDDKAKNLRFQWTIAKAGQVSNIIPASATLNADVRYARNEDFDAAMKTLEERAQQKKLPEADVKVIVTRGRPAFNAGEGGKKLVDKAVAYYKEAGGTLGVEERTGGGTDAAYAALSGKPVIESLGLPGFGYHSDKAEYVDISAIPRRLYMAARLIMDLGAGK
light: QTVLSQSPAILSASPGEKVTMTCRASSSVTYIHWYQQKPGSSPKSWIYATSNLASGVPARFSGSGSGTSYSLTISRVEAEDAATYYCQHWSSKPPTFGGGTKLEIKRTVAAPSVFIFPPSDEQLKSGTASVVCLLNNFYPREAKVQWKVDNALQSGNSQESVTEQDSKDSTYSLSSTLTLSKADYEKHKVYACEVTHQGLSSPVTKSFNRGEC
- CEA binding in anti-CEA ELISA [1]: binding of protein at levels commensurate with a bivalent A5B7 antibody molecule
- binding to CEA negative cells (OD 490 nm) [2]: only constant background binding levels throughout; also recorded: do not bind to CEA negative lines
- average enzyme activity in tumour ([3]; day 5): 0.26 U/g
- range of enzyme activity in tumour ([3]; day 5): 0.18-0.36 U/g
- average enzyme activity in tumour ([3]; day 12): 0.65 U/g
- range of enzyme activity in tumour ([3]; day 12): 0.19-1.1 U/g
